From paper PMC3823998, “Structural and Functional Characterization of the Redβ Recombinase from Bacteriophage λ” (PLoS ONE, 2013)
Where a chain is given by its changes, count along the chain named.

B1: Redβ R152A (natural protein, bacteriophage λ)
chain: GSHMSTALATLAGKLAERVGMDSVDPQELITTLRQTAFKGDASDAQFIALLIVANQYGLNPWTKEIYAFPDKQNGIVPVVGVDGWSRIINENQQFDGMDFEQDNESCTCRIYRKDRNHPICVTEWMDECRREPFKTREGREITGPWQSHPKRMLAHKAMIQCARLAFGFAGIYDKDEAERIVENTAYTAERQPERDITPVNDETMQEINTLLIALDKTWDDDLLPLCSQIFRRDIRASSELTQAEAVKALGFLKQKAAEQKVAA
notes: three residues (Gly-Ser-His) left before the initial methionine after thrombin removal of the tag; Redβ, recombinase of Enterobacteria phage λ, alanine substitution mutant; source: E. coli BL21(DE3), purified (HisTrap FF, thrombin digestion, HisTrap FF, Benzamidine FF); not shown: His6, N-terminal, cleaved
B2: Redβ K69A (natural protein, bacteriophage λ)
chain: B1 chain with K72A, A155R
notes: as for B1
B3: Redβ V77A (natural protein, bacteriophage λ)
chain: B1 chain with V80A, A155R
notes: as for B1
B4: Redβ D80A (natural protein, bacteriophage λ)
chain: B1 chain with D83A, A155R
notes: as for B1
B5: Redβ Y64A (natural protein, bacteriophage λ)
chain: B1 chain with Y67A, A155R
notes: as for B1
B6: Redβ V79A (natural protein, bacteriophage λ)
chain: B1 chain with V82A, A155R
notes: as for B1
B7: Redβ G78A (natural protein, bacteriophage λ)
chain: B1 chain with G81A, A155R
notes: as for B1
B8: Redβ R149A (natural protein, bacteriophage λ)
chain: B1 chain with R152A, A155R
notes: three residues (Gly-Ser-His) left before the initial methionine after thrombin removal of the tag; Redβ, recombinase of Enterobacteria phage λ, alanine substitution mutant; By gel filtration complexes of approximately 3 subunits; source: E. coli BL21(DE3), purified (HisTrap FF, thrombin digestion, HisTrap FF, Benzamidine FF); not shown: His6, N-terminal, cleaved
B9: Redβ K132A (natural protein, bacteriophage λ)
chain: B1 chain with K135A, A155R
notes: as for B1
B10: Redβ K148A (natural protein, bacteriophage λ)
chain: B1 chain with K151A, A155R
notes: as for B8
B11: Redβ wild-type (WT) protein from bacteriophage λ (natural protein)
chain: B1 chain with A155R
notes: three residues (Gly-Ser-His) left before the initial methionine after thrombin removal of the tag; Redβ, recombinase of Enterobacteria phage λ, bet gene amplified from phage λ genomic DNA, in pET14b; Forms multimers; subunit about 30 kDa; also called Redβ WT; source: E. coli BL21(DE3), purified (HisTrap FF, thrombin digestion, HisTrap FF, Benzamidine FF); not shown: His6, N-terminal, cleaved
B12: Redβ K172A (natural protein, bacteriophage λ)
chain: B1 chain with A155R, K175A
notes: as for B1
B13: Redβ R161A (natural protein, bacteriophage λ)
chain: B1 chain with A155R, R164A
notes: as for B1

Biological target: the molecule itself
Assay: SEC; Superdex 200 5/150 GL, 20 mM potassium phosphate pH 6.0, 10 mM MgCl2, 0.15 M NaCl; masses estimated from a calibration curve; self-association, no DNA

Row | Protein | binding result | stoichiometry N [subunits]
1 | B1 | binds | 
2 | B2 | binds | 
3 | B3 | binds | 
4 | B4 | binds | 
5 | B5 | binds | 
6 | B6 | binds | 
7 | B7 | binds | 
8 | B8 |  | ~3
9 | B9 | binds | 
10 | B10 |  | ~3

Biological target: the molecule itself
Assay: native gel or EMSA; native PAGE, 10 µg protein per lane (20 µg in Figure S3), 5-20% gradient polyacrylamide gel, 25 mM Tris, 192 mM glycine, Coomassie stain; self-association, no DNA

Row | Protein | binding result
11 | B11 | binds
12 | B12 | binds
13 | B13 | binds
